Experimental data published in patent publication US20200085917A1 (UNIVERSITY OF PITTSBURGH OF THE COMMONWEALTH SYSTEM OF …, published 2020).

B1: Ociad2_IPI:IPI00112139.1 (other, mouse, UniProt Q9D8W7 1-154, looked up)
chain: MASVSTHGNQEKSPHLPPLSKQSLLFCPKSKLHIHRGEIAKIIRECQEESFWKRALPFSLISMLVTQGLVHQGYLAANPRFGSLPKVALAGLLGFGLGKASYIRVCQSKFHSFEDQLRGAGFGPEHNRHCLLTCEDCKTRRGLSEKAGSQPSAS
B2: C1qbp_IPI:IPI00132799.4 (other, mouse, UniProt O35658 71-278, looked up)
chain: LHTEGDKAFVEFLTDEIKEEKKIQKHKSLPKMSGDWELEVNGTEAKLLRKVAGEKITVTFNINNSIPPTFDGEEEPSQGQKAEEQEPERTSTPNFVVEVTKTDGKKTLVLDCHYPEDEIGHEDEAESDIFSIKEVSFQATGDSEWRDTNYTLNTDSLDWALYDHLMDFLADRGVDNTFADELVELSTALEHQEYITFLEDLKSFVKNQ
B3: Isca2_IPI:IPI00120671.2 (other, mouse, UniProt Q9DCB8 9-154, looked up)
chain: LTAEAVRAVIPRRSGRLLAVFPRLLTRWETTSSIPEAGEGQIRLTDSCVQRLLEITEGSEFLRLQVEGGGCSGFQYKFSLDTVINPDDRVFEQGGARVVVDSDSLAFVKGAQVDFSQELIRSSFQVLNNPQAQQGCSCGSSFSVKV
B4: Prdx3_IPI:IPI00116192.1 (other, mouse, UniProt P20108 63-257, looked up)
chain: TPAVTQHAPYFKGTAVVNGEFKELSLDDFKGKYLVLFFYPLDFTFVCPTEIVAFSDKANEFHDVNCEVVAVSVDSHFSHLAWINTPRKNGGLGHMNITLLSDITKQISRDYGVLLESAGIALRGLFIIDPNGVVKHLSVNDLPVGRSVEETLRLVKAFQFVETHGEVCPANWTPESPTIKPSPTASKEYFEKVHQ
B5: Fis1_IPI:IPI00132217.1 (other, mouse, UniProt Q9CQ92 1-152, looked up)
chain: MEAVLNELVSVEDLKNFERKFQSEQAAGSVSKSTQFEYAWCLVRSKYNEDIRRGIVLLEELLPKGSKEEQRDYVFYLAVGNYRLKEYEKALKYVRGLLQTEPQNNQAKELERLIDKAMKKDGLVGMAIVGGMALGVAGLAGLIGLAVSKSKS
B6: Tomm20_IPI:IPI00120715.1 (other, mouse, UniProt Q9DCC8 1-145, looked up)
chain: MVGRNSAIAAGVCGALFIGYCIYFDRKRRSDPNFKNRLRERRKKQKLAKERAGLSKLPDLKDAEAVQKFFLEEIQLGEELLAQGDYEKGVDHLTNAIAVCGQPQQLLQVLQQTLPPPVFQMLLTKLPTISQRIVSAQSLAEDDVE
B7: Mrpl14_IPI:IPI00133778.1 (other, mouse, UniProt Q9D1I6 31-145, looked up)
chain: AVQKMTRVRVVDNSALGSTPYHRPPRCIHVYNKSGVGKVGDQILLAIRGQKKKALIVGHRMPGSRMTPKFDSNNVVLIEDNGNPVGTRIKIPIPTSLRRREGEYSKVLAIAQNFV
B8: Ppdpf_IPI:IPI00133078.1 (other, mouse, UniProt Q9CR37 1-115, looked up)
chain: MAAIPSSGSLVATHDYYRRRLGSSSSSSSGGSAEYPGDAVLQSPGLPKADPGHWWASFFFGKSTLPFMTTVLESPERSAESPQVSRSPMTCGLTPETMKQQPVIHSGQTNPRDLS
B9: Brp44_IPI:IPI00131896.1 (other, mouse, UniProt Q9D023 1-127, looked up)
chain: MAAAGARGLRATYHRLMDKVELLLPKKLRPLYNHPAGPRTVFFWAPIMKWGLVCAGLADMARPAEKLSTAQSTVLMATGFIWSRYSLVIIPKNWSLFAVNFFVGSAGASQLFRIWRYNQELKSKGIQ
B10: Cplx1_IPI:IPI00132278.1 (other, mouse, UniProt P63040 1-134, looked up)
chain: MEFVMKQALGGATKDMGKMLGGDEEKDPDAAKKEEERQEALRQAEEERKAKYAKMEAEREVMRQGIRDKYGIKKKEEREAEAQAAMEANSEGSLTRPKKAIPPGCGDEPEEEDESILDTVIKYLPGPLQDMFKK
B11: Cisd1_IPI:IPI00128346.1 (other, mouse, UniProt Q91WS0 1-108, looked up)
chain: MGLSSNSAVRVEWIAAVTFAAGTAALGYLAYKKFYAKENRTKAMVNLQIQKDNPKVVHAFDMEDLGDKAVYCRCWRSKKFPFCDGAHIKHNEETGDNVGPLIIKKKET
B12: Arf2_IPI:IPI00135730.1 (other, mouse, UniProt Q8BSL7 2-181, looked up)
chain: GNVFEKLFKSLFGKKEMRILMVGLDAAGKTTILYKLKLGEIVTTIPTIGFNVETVEYKNISFTVWDVGGQDKIRPLWRHYFQNTQGLIFVVDSNDRERVNEAREELTRMLAEDELRDAVLLVFVNKQDLPNAMNAAEITDKLGLHSLRQRNWYIQATCATSGDGLYEGLDWLSNQLKNQK
B13: Pfn2_IPI:IPI00227805.6 (other, mouse, UniProt Q9JJV2 2-140, looked up)
chain: AGWQSYVDNLMCDGCCQEAAIVGYCDAKYVWAATAGGVFQSITPVEIDMIVGKDREGFFTNGLTLGAKKCSVIRDSLYVDGDCTMDIRTKSQGGEPTYNVAVGRAGRVLVFVMGKEGVHGGGLNKKAYSMAKYLRDSGF

Target: T1, GST alone (UniProt P08515 1-218 = GST)
T1 construct: Negative control of the pull-downs; also called control GST
T1 sequence (P08515 whole entry): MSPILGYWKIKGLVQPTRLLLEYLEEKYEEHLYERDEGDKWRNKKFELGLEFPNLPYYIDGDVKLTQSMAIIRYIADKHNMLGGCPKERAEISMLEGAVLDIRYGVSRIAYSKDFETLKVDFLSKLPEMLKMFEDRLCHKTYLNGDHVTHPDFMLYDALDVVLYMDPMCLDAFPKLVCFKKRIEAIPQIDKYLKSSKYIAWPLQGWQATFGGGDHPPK
Test: GST pull-down, LC-MS/MS
Description: Extracts were spun at 14,000 r.p.m. at 4° C., and clarified supernatants were incubated with glutathione 4B Sepharose beads (GE Healthcare) at 4° C. overnight. The glutathione beads were then washed extensively with ice-cold TNE buffer, and bound proteins were subjected to SDS-PAGE followed by immunoblotting analysis. For the samples subjected to mass spectrometry, glutathione bead-bound proteins from equal amounts (600 μg) of mitochondria were further washed with high stringency RIPA buffer following TNE buffer wash to decrease nonspecific interaction. Proteins were then eluted from the glutathione beads in SDS sample buffer, separated by SDS-PAGE and stained with Coomassie. Proteins in the gel were digested with trypsin and analyzed by mass spectrometry (LC-MS/MS) at the Taplin Biological Mass Spectrometry Facility (Harvard Medical School, Boston, Mass.).

Binder | binding result
B1 | no binding
B2 | no binding
B3 | no binding
B4 | no binding
B5 | no binding
B6 | no binding
B7 | no binding
B8 | no binding
B9 | no binding
B10 | no binding
B11 | no binding
B12 | no binding
B13 | no binding
